# Reference: US20130171217A1, “ENZYMATIC PERACID GENERATION FOR USE IN SKIN CARE PRODUCTS” (E I DU PONT DE NEMOURS AND COMPANY, priority 2010, published 2013)
# Marks after values point to notes of the source that are not given here.
# Tests used:
# [1] = Retention of perhydrolase on hair detected by hydrolase activity; assay type: binding; conditions: for Activity in the first TWEEN®-20 wash / Activity retained on hair after 4 TWEEN® 20 washes / Activity unbound: hydrolase activity; for Activity in the first TWEEN®-20 wash: 1% TWEEN®-20; for Activity retained on hair after 4 TWEEN® 20 washes: 4 washes 1% TWEEN®-20 and 2 buffer washes; for Activity unbound: ~20 mg hair, binding 30 min; for 100% activity (hydrolase activity added to the tube): tube containing ~20 mg of hair, not subjected to washes
# Description: For hair binding experiments brown hair tresses (International Hair Importers and Products, Glensdale N.Y.) were used. The hair was washed with 2% SLES, rinsed extensively with deionized water and air dried.
# Around 20 mg of 1 cm brown hair fragments was added in a 1.8-mL microfuge tube. Hydrolase assay buffer (1.2 mL) as added to the hair followed by the addition of the perhydrolase enzymes to the solution. The enzymes were allowed to bind the hair for 30 min with gentle agitation (24 rpm) on an Adams Nutator (model 1105, Becton Dickinson, Franklin Lakes, N.J.). No enzyme controls, with hair and without hair, were included in the binding experiment to account for non-enzymatic hydrolysis of the pNPA hydrolase reagent. After the binding step, a 1.0-mL aliquot of the binding buffer was transferred to a new tube to quantitate the amount of unbound enzyme. Additional binding buffer was removed and the hair fragments were washed 4 times with 1 mL of 1% TWEEN®-20 in hydrolase buffer, followed by 2 washes with 1 mL each in hydrolase buffer. The hair fragments were then resuspended in 1 mL of hydrolase assay and the hydrolase activity that remained bound to the hair was measured. The C277S (“PAH”) variant of Thermotoga maritima perhydrolase (SEQ ID NO: 293) was used as a control for an un-targeted perhydrolase.
# [2] = Single fiber tensile strength after one-step enzymatic application
# Description: (§1) Hair samples were cut into pieces 4-inches in length. The denier number (liner mass density) of each hair fiber was measured by Textechno Vibromat Instrument (Textechno Herbert Stein GmbH & Co. KG; Germany). The hair fibers were tested according to ASTM D 3822-01 (“Tensile Properties of Single Textile Fibers”; ASTM International, West Conshohocken, Pa., 2001), on an Instron testing system (Instron Model 1122 Tester; Instron, Mass.) at about 70° F. (approximately 21° C.) and 65% relative humidity. The treated area of the hair sample was placed in the middle of the gauge and both ends were gripped on the test heads. Both fiber ends were attached on a piece of tape, respectively, for easy handling and gripping on the test heads. The test used 2-inch (5.1 cm) gauge length, […], and 1.2 inch/min (3 cm/min) pulling rate. The force-strain curve of the fiber was recorded during the test. The tenacity at maximum (gf/den) was calculated by dividing maximum force (gf) by denier number (den). Note that (gf/den)/11.33=Newtons/tex (N/tex).
# The first method (referred to herein as the “one-step approach”) comprises combining different amounts of at least one CE-7 perhydrolase with triacetin (an example of a suitable ester substrate) and hydrogen peroxide to generate peracetic acid. Hair bundles were inserted into “one step approach” solutions for 15 min immediately after mixing the enzyme solution with triacetin solution (final concentration was about 100 mM) and H2O2 solution (final concentration was about 250 mM). The hair samples were rinsed with water and dried. The method was repeated for another 15 times (total application was 16 times). In one experiment, two perhydrolase enzymes were used, i.e., untargeted T. maritima variant C277S (“C277S”; “PAH”; SEQ ID NO: 293) and “C277S-HC263” (SEQ ID NO: 288). The concentration of peracetic acid in solution after 15 min was evaluated by HPLC.
# [3] = Single fiber tensile strength and bleaching start after two-step enzymatic application
# Description: as §1
# In a two-step application, the hair strands are first treated with perhydrolase solutions to allow the enzyme to bind hair. The hair strands are then dried or rinsed with buffer and dried. The rinse step is intended to remove excess unbound enzyme from the hair. The hair strands are soaked in triacetin and H2O2 solutions. The application is repeated for multiple times.
# One experiment was carried out with C277S-HC263 and untargeted T. maritima variant C277S using the following protocol: • 1. Enzyme solutions comprising 0.5 mg/mL enzyme in 50 mM phosphate buffer (pH 8) were made with or without 10 wt % urea. • 2. Seven (7) hair strands were soaked in 0.2 mL of an enzyme solution for 10 min and then dried under N2 without prior rinsing. • 3. The hair strands were then soaked in 0.2 mL of a pH 8 solution containing 100-mM triacetin and 250-mM H2O2 for 15 min, dried, then rinsed with DI water and then dried again. • 4. Steps 2-3 were repeated up to 15 times.
# Another experiment was carried out with C277S-HC263 (SEQ ID NO: 288), CPAH-HC263 (SEQ ID NO: 294), CPAH-HC1010 (SEQ ID NO: 295) and untargeted C277S using the following protocol: • 1. Enzyme solutions comprising 1.0 mg/mL enzyme in 50 mM phosphate buffer (pH 6) were prepared. For solutions containing two enzymes, the concentration of each enzyme was approximately 0.5 mg/mL. • 2. Seven (7) hair strands were soaked in 0.2 mL of an enzyme solution for 10 min, rinsed with 50 mM phosphate buffer (pH 6), and then dried under N2. • 3. The dried hair strands were then soaked into 0.2 mL of 50 mM phosphate buffer solution (pH 8) comprising 100 mM triacetin and 250 mM H2O2 for 15 min, dried, then rinsed with DI water and then dried again. • 4.
# [4] = Perhydrolase activity of targeted hydrolases, ABTS assay; assay type: biochemical
# Description: The ABTS assay was performed as follows: hair samples treated as described above were transferred to new 2-mL microcentrifuge tubes (Eppendorf Protein LoBind; Eppendorf North America, Hauppauge, N.Y.) To each tube was added 480 μL of PAH buffer ([…]), 14 μL of 39% hydrogen peroxide (Sigma 3410), and 6 μL triacetin (Sigma-Aldrich W200700). The perhydrolase reaction was allowed to proceed for 10 minutes at room temperature (˜22-25° C.). The reaction was stopped by diluting aliquots 10×, 100× and 1000× with 10 mM phosphoric acid. For detection 50 μL of 1 M acetic acid, 50 μL of 40 mg/mL potassium iodide, and 50 μL of 4 mM ABTS (2,2′-azino-bis(3-ethylbenzthiazoline-6-sulphonic acid; Sigma, St Louis, Mo.) were added to 50 μL of the above dilutions. Color was allowed to develop for 10 minutes and read in a spectrophotometer at 405 nm. Values from no-enzyme controls were subtracted to yield values attributable only to enzyme activity. A standard curve of OD 405 nm vs PAA concentration in ppm yielded a conversion factor of 8.75, such that an OD 405 nm of 1.0 corresponded to approximately 8.75 ppm PAA. This value was then multiplied by the appropriate dilution to arrive at the PAA concentration in the perhydrolase reaction.
# The perhydrolase activity of the enzymes targeted to hair with a variety of targeting domains produced as described in Example 32 was measured with the ABTS assay.
# [5] = two-step with buffer rinse, 1.0 mg/mL enzyme pH 6, 100 mM triacetin, 250 mM H2O2, up to 13 repeats
# [6] = two-step without rinse, 0.5 mg/mL enzyme pH 8, urea 0 wt %
# [7] = two-step without rinse, 0.5 mg/mL enzyme pH 8, urea 0 wt %, 100 mM triacetin, 250 mM H2O2
# [8] = two-step without rinse, 0.5 mg/mL enzyme pH 8, urea 10 wt %, 100 mM triacetin, 250 mM H2O2
Activity in the first TWEEN®-20 wash [1] [%],Activity retained on hair after 4 TWEEN® 20 washes [1] [%],Activity unbound [1] [%],Molecule,100% activity (hydrolase activity added to the tube) [1] [µmol/min],"Ten. @ Max ([2]; 0.05 mg/mL enzyme, urea 10 wt %, 15 min × 16) [gf/den]","Ten. @ Max ([2]; 0.25 mg/mL enzyme, urea 10 wt %, 15 min × 16, average of less than 3 strands)","Ten. @ Max ([2]; 0.5 mg/mL enzyme, urea 10 wt %, 15 min × 16) [gf/den]","Tenacity @ max [3, 5] [gf/den]","Bleaching Start [3, 6] [th]","Tenacity @ max [3, 7] [gf/den]","Bleaching Start ([3]; two-step without rinse, 0.5 mg/mL enzyme pH 8, urea 10 wt %) [th]","Tenacity @ max [3, 8] [gf/den]",Specific perhydrolase activity ([4]; triacetin at pH 7.5) [µmol/mg/min],"Ten. @ Max ([2]; 0.05 mg/mL enzyme, urea 0 wt %, 15 min × 16) [gf/den]","Ten. @ Max ([2]; 0.25 mg/mL enzyme, urea 0 wt %, 15 min × 16, average of less than 3 strands)","Ten. @ Max ([2]; 0.5 mg/mL enzyme, urea 0 wt %, 15 min × 16) [gf/den]",Specific perhydrolase activity ([4]; 1 m Na acetate at pH 5.5 instead of triacetin)
5,1,103,"C277S: non-targeted C277S variant of the Thermotoga maritima perhydrolase, un-targeted control (protein, listed as Thermotoga maritima) MAFFDLPLEELKKYRPERYEEKDFDEFWEETLAESEKFPLDPVFERMESHLKTVEAYDVTFSGYRGQRIKGWLLVPKLEEEKLPCVVQYIGYNGGRGFPHDWLFWPSMGYICFVMDTRGQGSGWLKGDTPDYPEGPVDPQYPGFMTRGILDPRTYYYRRVFTDAVRAVEAAASFPQVDQERIVIAGGSQGGGIALAVSALSKKAKALLCDVPFLCHFRRAVQLVDTHPYAEITNFLKTHRDKEEIVFRTLSYFDGVNFAARAKIPALFSVGLMDNISPPSTVFAAYNYYAGPKEIRIYPYNNHEGGGSFQAVEQVKFLKKLFEKG",148,0.3,0.6^# gf/den,0.6,1.7,13,0.7,12,0.6,,,,,
,,,SEQ ID NO: 323: S54V variant of the aryl esterase from Mycobacterium smegmatis fused to hair binding domain HC263 via a flexible linker (protein) MAKRILCFGDSLTWGWVPVEDGAPTERFAPDVRWTGVLAQQLGADFEVIEEGLVARTTNIDDPTDPRLNGASYLPSCLATHLPLDLVIIMLGTNDTKAYFRRTPLDIALGMSVLVTQVLTSAGGVGTTYPAPKVLVVSPPPLAPMPHPWFQLIFEGGEQKTTELARVYSALASFMKVPFFDAGSVISTDGVDGIHFTEANNRDLGVALAEQVRSLLGPGSGGAGSPGSAGGPGSPSAQSQLPDKHSGLHERAPQRYGPEPEPEPEPIPEPPKEAPVVIEKPKPKPKPKPKPPAHDHKNQKETHQRHAAGSGGGGSPHHHHHH,,,,,,,,,,270,,,,
9,54,52,C277S-HC263: C277S variant of Thermotoga maritima perhydrolase fused via a flexible linker to hair-binding domain HC263 (protein) MAFFDLPLEELKKYRPERYEEKDFDEFWEETLAESEKFPLDPVFERMESHLKTVEAYDVTFSGYRGQRIKGWLLVPKLEEEKLPCVVQYIGYNGGRGFPHDWLFWPSMGYICFVMDTRGQGSGWLKGDTPDYPEGPVDPQYPGFMTRGILDPRTYYYRRVFTDAVRAVEAAASFPQVDQERIVIAGGSQGGGIALAVSALSKKAKALLCDVPFLCHFRRAVQLVDTHPYAEITNFLKTHRDKEEIVFRTLSYFDGVNFAARAKIPALFSVGLMDNISPPSTVFAAYNYYAGPKEIRIYPYNNHEGGGSFQAVEQVKFLKKLFEKGGPGSGGAGSPGSAGGPGSPSAQSQLPDKHSGLHERAPQRYGPEPEPEPEPIPEPPKEAPVVIEKPKPKPKPKPKPPAHDHKNQKETHQRHAAGSGGGGSPHHHHHH,53,,,,1.7,15,1.2,,1.7,,1.0,0.4^# gf/den,0.7,The perhydrolase activity of the fusions of the Pseudomonas fluorescens hydrolase was assayed using 1 m Na acetate at pH 5.5 instead of triacetin at pH 7.5 Targeted Perhydrolases HC1121 (C277S-HC263; SEQ ID NO: 288) had no detectable perhydrolase activity with acetate as a substrate.
